The record followed here is US20040038398A1.

The target in experiment [1] is CD2 antigen on human peripheral blood CD14+ myeloid cells / primary dendritic cells (and CD3+ T cells) (human) (UniProt P06729). The experiment is described as follows: flow cytometry, staining of enriched human CD14+ myeloid cells.
The target is the same in experiment [2]. The experiment is described as follows: cell-based or functional assay.
Experiment [3] shares this target. The experiment can be described thus: flow cytometry, anti-T113 staining after 30 min pre-incubation with anti-T112, 4 C, Mg++/Ca++-free medium. Background: In flow cytometry, cells or beads pass a laser one at a time.

Chain of UniProt P06729 (P06729 25-351): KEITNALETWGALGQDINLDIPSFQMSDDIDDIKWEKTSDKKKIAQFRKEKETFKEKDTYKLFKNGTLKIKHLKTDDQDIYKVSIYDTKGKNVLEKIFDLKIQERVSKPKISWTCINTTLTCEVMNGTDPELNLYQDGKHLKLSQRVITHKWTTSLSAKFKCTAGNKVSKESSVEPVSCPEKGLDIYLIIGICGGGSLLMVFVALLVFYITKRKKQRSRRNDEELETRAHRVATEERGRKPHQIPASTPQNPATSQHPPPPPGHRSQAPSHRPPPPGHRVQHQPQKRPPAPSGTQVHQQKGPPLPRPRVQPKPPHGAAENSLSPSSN

Take anti-T112 monoclonal antibody: in experiment [1], the percent of CD14+ Mx on which CD2 was identified was 37%.
In experiment [2], anti-T113 monoclonal antibody came in with a CD50 MFI of primary dendritic cells, after CD2 engagement of 90 MFI; a CD50 MFI of primary dendritic cells, control of 148 MFI; an HLA-DQ level on primary dendritic cells (anti-T113 added to anti-T112-enriched cells) of 9 fold; an HLA-DR level on primary dendritic cells (anti-T113 added to anti-T112-enriched cells) of 2 fold. In experiment [2], this substance came in with an MFI of CD50^hi (so in the source) primary dendritic cells of 53%; a [Ca++]i in CD3+ T cells above baseline (anti-T112 and anti-T113 cross-linked with goat anti-mouse IgG) of 180%; a high expressing CD86 population of primary dendritic cells (anti-T112/3 pair) of 65%; an increase in [Ca++]i in CD14+ Mx (anti-T113 added after anti-T112) of 69%. In addition, in experiment [2], the increase in [Ca++]i in CD14+ Mx above baseline (anti-T112 and anti-T113 cross-linked with goat anti-mouse IgG) is 95%; the level of CD40 on primary dendritic cells (anti-T112/3 pair) was determined as 2 fold; the level of CD54 on primary dendritic cells (baseline 14%) was determined as 9 fold; the level of CD80 on primary dendritic cells (anti-T112/3 pair) was determined as 3 fold. Also, in experiment [2], the levels of HLA-DR and HLA-DQ on primary dendritic cells (anti-T112/3 pair against control) was in the range of 2 to 3 fold; the percent CD50^hi of primary dendritic cells, after CD2 engagement was 76%; the percent CD50^hi of primary dendritic cells, control stood at 96%; the percentage of CD50^hi (so in the source) of primary dendritic cells amounted to 21%. The substance also showed a percent of CD14+ Mx that were CD2+ in experiment [3] of 20%.
For anti-T111 monoclonal antibody, in experiment [2], the IL-1β release, monocyte-derived dendritic cells against primary dendritic cells was found to be 75 fold; the IL-12 release, monocyte-derived dendritic cells against primary dendritic cells amounted to 100 fold; the allogeneic naive CD4 T cell proliferation induced by antibody-pulsed primary dendritic cells ([3H]thymidine) was 2.5 fold. The percent of CD14+ Mx on which CD2 was identified in experiment [1] came to 30%.
As for “CD58 expressed on transfected CHO cells (CHO-58) (from UniProt P19256 29-250) (ligand)”, in experiment [2], the IL-1β in DC/CHO-58 cocultures compared with DC/CHO-NEO came to 2 fold, the IL-12 in DC/CHO-58 cocultures compared with DC/CHO-NEO was determined as 26 fold and the level of HLA-DR on primary dendritic cells cocultured with CHO-58 was over 2.5 fold.
